Experiments:
[1] = target: T1, SOX9 D-HMG (high solubility variant) (Homo sapiens) (UniProt P48436); assay: EMSA; conditions: 10 mM sodium phosphate pH 6.0, 100 mM NaCl, 5 mM EDTA, on ice 30 min (1 h for 32P titrations); 9 nM DNA for Kd, 2 uM DNA for SYBR Green EMSA
T1 sequence: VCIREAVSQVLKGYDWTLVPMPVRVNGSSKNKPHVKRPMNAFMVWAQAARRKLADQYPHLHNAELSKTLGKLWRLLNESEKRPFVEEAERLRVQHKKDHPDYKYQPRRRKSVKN

SOX9 HMG [2] = target: T2, SOX9 HMG (Homo sapiens, UniProt P48436 110-184); assay: EMSA; Hill 2.2 ± 0.4; 10 mM sodium phosphate pH 6.0, 100 mM NaCl, 5 mM EDTA, on ice 30 min (1 h for 32P titrations); 9 nM DNA for Kd, 2 uM DNA for SYBR Green EMSA; conditions: protein: recombinant; tags: 6xHis; label: 32P 5' for Kd; unlabeled (SYBR Green) in mutant EMSA; blunt; self-complementary, 2 copies of one strand
SOX9 D-HMG L145E = SOX9 D-HMG L145E (Homo sapiens, UniProt P48436 71-184, L145E); assay: EMSA; dimerization retained; 10 mM sodium phosphate pH 6.0, 100 mM NaCl, 5 mM EDTA, on ice 30 min (1 h for 32P titrations); 9 nM DNA for Kd, 2 uM DNA for SYBR Green EMSA; conditions: protein: recombinant; tags: 6xHis; chain copies: 2; label: 32P 5' for Kd; unlabeled (SYBR Green) in mutant EMSA; blunt; self-complementary, 2 copies of one strand
SOX9 D-HMG A118E = SOX9 D-HMG A118E (Homo sapiens, UniProt P48436 71-184, A118E); assay: as above; conditions: protein: recombinant; tags: 6xHis; chain copies: 2; label: 32P 5' for Kd; unlabeled (SYBR Green) in mutant EMSA; blunt; self-complementary, 2 copies of one strand
SOX9 D-HMG L142Q = SOX9 D-HMG L142Q (Homo sapiens, UniProt P48436 71-184, L142Q); assay: EMSA; dimerization lost; single and double occupancy bands; 10 mM sodium phosphate pH 6.0, 100 mM NaCl, 5 mM EDTA, on ice 30 min (1 h for 32P titrations); 9 nM DNA for Kd, 2 uM DNA for SYBR Green EMSA; conditions: protein: recombinant; tags: 6xHis; chain copies: 2; label: 32P 5' for Kd; unlabeled (SYBR Green) in mutant EMSA; blunt; self-complementary, 2 copies of one strand
SOX9 D-HMG A119E = SOX9 D-HMG A119E (Homo sapiens, UniProt P48436 71-184, A119E); assay: as above; conditions: protein: recombinant; tags: 6xHis; chain copies: 2; label: 32P 5' for Kd; unlabeled (SYBR Green) in mutant EMSA; blunt; self-complementary, 2 copies of one strand
SOX9 HMG [3] = target: T2, SOX9 HMG; assay: EMSA; Hill 1.6 ± 0.5; 10 mM sodium phosphate pH 6.0, 100 mM NaCl, 5 mM EDTA, on ice 30 min (1 h for 32P titrations); 9 nM DNA for Kd, 2 uM DNA for SYBR Green EMSA; conditions: protein: recombinant; tags: 6xHis; label: 32P 5'; blunt

GGGTTAACAGAACAATGGAATCTGGTAGA (double strand) [S9WT]
Kd [1]: 82 nM

GGGATCCTACACAAAGCCGGCTTTGTGTAGGATCCC (double strand) [CC36]
Kd [1]: 98 nM

B1: CC36 (dsDNA)
DNA 1: GGGATCCTACACAAAGCCGGCTTTGTGTAGGATCCC
DNA 2: B1 DNA 1
Kd (SOX9 HMG [2]): 109 ± 10 nM | binding result (SOX9 D-HMG L145E): binds | binding result (SOX9 D-HMG A118E): binds | binding result (SOX9 D-HMG L142Q): binds | binding result (SOX9 D-HMG A119E): binds

B2: S9WT (dsDNA)
DNA 1: GGGTTAACAGAACAATGGAATCTGGTAGA
DNA 2: TCTACCAGATTCCATTGTTCTGTTAACCC
Kd (SOX9 HMG [3]): 101 ± 33 nM

— PMC4988710, “A Model for Dimerization of the SOX Group E Transcription Factor Family”
